Patent EP3984547A1 (Universitat Pompeu Fabra, dated 2022)
Where no end group is shown, it is not given here.

T1: Histidine-tagged human TWEAK (His6-TWEAK) protein (R&D Systems) (human, UniProt O43508 93-249, limits assumed)
T1 construct: Bought protein, captured through the His6 tag on an NTA chip and then coupled covalently by amine coupling; also called human His6-TWEAK protein; histidine-tagged TWEAK; not shown: His6 tag
T1 sequence (looked up): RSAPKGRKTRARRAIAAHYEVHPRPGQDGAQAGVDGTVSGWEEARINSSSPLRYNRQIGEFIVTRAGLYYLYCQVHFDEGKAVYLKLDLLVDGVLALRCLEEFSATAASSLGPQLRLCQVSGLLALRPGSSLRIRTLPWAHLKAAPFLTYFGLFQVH

T2: TWEAK (Peprotech EC, Ltd, U.K.) (UniProt O43508 94-249, limits assumed)
T2 sequence (looked up): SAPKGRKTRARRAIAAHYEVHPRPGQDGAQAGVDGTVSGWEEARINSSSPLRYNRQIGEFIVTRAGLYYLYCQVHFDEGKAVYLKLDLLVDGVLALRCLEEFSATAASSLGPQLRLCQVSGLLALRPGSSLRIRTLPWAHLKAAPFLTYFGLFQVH

B1: Peptide 2: TTDGSTGDDLQA (SEQ ID NO: 1) (peptide)
peptide: TTDGSTGDDLQA-NH2
B2: Peptide 1: SWYDHMAGDSSY (SEQ ID NO: 2) (peptide)
peptide: SWYDHMAGDSSY-NH2
B3: Peptide 3: SYTDVQDS (SEQ ID NO: 3) (peptide)
peptide: SYTDVQDS-NH2
B4: Peptide 4: DNGGGNTDIYSE (SEQ ID NO: 4) (peptide)
peptide: DNGGGNTDIYSE-NH2

target: T1, Histidine-tagged human TWEAK …; assay: SPR (Biacore 3000), His6-TWEAK immobilized on NTA chip, peptide as analyte, 1:1 Langmuir fit

| Kd | Binder |
| --- | --- |
| 170 µM | B1 |

target: T2, TWEAK (Peprotech EC, Ltd, U.K.); assay: cell-based or functional assay

| BIRC2 normalized level of expression (Zscore vs NARS2), RT-PCR, cells with peptide at 450 µM | HSP90B1 normalized level of expression (Zscore vs NARS2), RT-PCR, cells with peptide at 450 µM | IL6 normalized level of expression (Zscore vs NARS2), RT-PCR, cells with peptide at 450 µM | JUN normalized level of expression (Zscore vs NARS2), RT-PCR, cells with peptide at 450 µM | MAP4K4 normalized level of expression (Zscore vs NARS2), RT-PCR, cells with peptide at 450 µM | MAPK14 normalized level of expression (Zscore vs NARS2), RT-PCR, cells with peptide at 450 µM | NFkB2 normalized level of expression (Zscore vs NARS2), RT-PCR, cells with peptide at 450 µM | TNFRSF12A normalized level of expression (Zscore vs NARS2), RT-PCR, cells with peptide at 450 µM | TRAF2 normalized level of expression (Zscore vs NARS2), RT-PCR, cells with peptide at 450 µM | Binder |
| --- | --- | --- | --- | --- | --- | --- | --- | --- | --- |
| -0.747 Zscore | -1.1 Zscore | 0.198 Zscore | -0.509 Zscore | -1.7 Zscore | -1.11 Zscore | -1.51 Zscore | -1.05 Zscore | -0.548 Zscore | B2 |
| -0.115 Zscore | -0.468 Zscore | -0.972 Zscore | -0.206 Zscore | -1.36 Zscore | -0.585 Zscore | -1.15 Zscore | -1.08 Zscore | -0.577 Zscore | B3 |
| -0.996 Zscore | -1.31 Zscore | -0.535 Zscore | -0.488 Zscore | -1.13 Zscore | -1.01 Zscore | -1.21 Zscore | -1.11 Zscore | -0.409 Zscore | B1 |
| -0.61 Zscore | -0.921 Zscore | -0.045 Zscore | -0.509 Zscore | -1.56 Zscore | -1.11 Zscore | -1.32 Zscore | -1.11 Zscore | -0.439 Zscore | B4 |
